Values quoted from earlier work as cited in publication PMC7768908 (Biochemistry, 2020).

Tests used:
[1] = system: MT1-MMP; details: by binding the cytoplasmic tail of MT1-MMP; ref [13]
[2] = system: cytoplasmic tail of MT1-MMP; details: ref [13]

B1: ADI1 gene product: ADI1 gene encoding HsARD; human acireductone dioxygenase (protein, UniProt Q9BV57 1-179, looked up)
Acireductone dioxygenase: MVQAWYMDDAPGDPRQPHRPDPGRPVGLEQLRRLGVLYWKLDADKYENDPELEKIRRERNYSWMDIITICKDKLPNYEEKIKMFYEEHLHLDDEIRYILDGSGYFDVRDKEDQWIRIFMEKGDMVTLPAGIYHRFTVDEKNYTKAMRLFVGEPVWTAYNRPADHFEARGQYVKFLAQTA
effect on MT1-MMP protease activity [1]: suppressing protease activity | binding to the cytoplasmic tail of MT1-MMP [2]: binds to the cytoplasmic tail of MT1-MMP
